Experimental findings from patent US20050282743A1, “Molecular interactions in cells” (Arbor Vita Corporation, priority 2001, published 2005) are described below.

Common to all, as to test: G' assay
Assay [1] concerns the target T1, GST-TIP1 PDZ domain 1 (Table 9 insert) (Homo sapiens (Human)), O14907.
T1 chain: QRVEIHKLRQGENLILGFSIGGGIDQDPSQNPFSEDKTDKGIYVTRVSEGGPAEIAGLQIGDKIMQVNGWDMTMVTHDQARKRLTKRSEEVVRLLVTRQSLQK

For assay [2], the target named is T2, GST-INADL PDZ domain 8 (Homo sapiens (Human)), Q8NI35.
T2 chain: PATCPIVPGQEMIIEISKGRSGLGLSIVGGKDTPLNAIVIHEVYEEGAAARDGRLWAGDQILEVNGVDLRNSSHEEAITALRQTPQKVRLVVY

Assay [3] concerns the target T3, GST-KIAA0147 PDZ domain 2 (Homo sapiens (Human)), Q14160.
T3 chain: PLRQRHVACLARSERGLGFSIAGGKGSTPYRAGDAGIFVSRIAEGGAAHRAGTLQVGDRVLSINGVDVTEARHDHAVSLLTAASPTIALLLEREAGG

In assay [4] the target is T4, GST-KIAA0147 PDZ domain 4 (Homo sapiens (Human)), Q14160.
T4 chain: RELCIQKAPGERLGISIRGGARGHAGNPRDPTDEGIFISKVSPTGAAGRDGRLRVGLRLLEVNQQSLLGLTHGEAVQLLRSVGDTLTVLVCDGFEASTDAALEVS

Assay [5] concerns the target T5, GST-DLG1 PDZ domain 2 (Homo sapiens), Q12959.
T5 chain: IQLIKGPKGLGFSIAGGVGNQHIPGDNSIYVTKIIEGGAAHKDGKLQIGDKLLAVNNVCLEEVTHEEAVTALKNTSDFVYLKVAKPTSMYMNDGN

For assay [6], the target named is T6, GST-ZO-3 PDZ domain 3 (Homo sapiens (Human)), O95049.
T6 chain: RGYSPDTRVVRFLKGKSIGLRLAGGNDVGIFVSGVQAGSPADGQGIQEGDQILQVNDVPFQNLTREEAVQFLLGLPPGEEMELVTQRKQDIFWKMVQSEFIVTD

The target in assay [7] is T7, GST-ERBIN PDZ domain 1 (Homo sapiens (Human)), Q96RT1.
T7 chain: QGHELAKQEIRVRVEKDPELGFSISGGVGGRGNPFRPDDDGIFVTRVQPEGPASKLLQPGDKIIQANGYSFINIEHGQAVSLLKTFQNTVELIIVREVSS

Assay [8] concerns the target T8, GST-MINT1 PDZ domains 1, 2, Q02410.
T8 chain: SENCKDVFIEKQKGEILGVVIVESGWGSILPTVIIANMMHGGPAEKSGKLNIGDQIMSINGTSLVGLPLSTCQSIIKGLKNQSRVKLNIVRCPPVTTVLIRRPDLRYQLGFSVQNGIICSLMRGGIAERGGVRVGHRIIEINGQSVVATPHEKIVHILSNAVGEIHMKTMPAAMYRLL

The target of assay [9] is T9, GST-DLG2 PDZ domain 2 (Homo sapiens (Human)), Q15700.
T9 chain: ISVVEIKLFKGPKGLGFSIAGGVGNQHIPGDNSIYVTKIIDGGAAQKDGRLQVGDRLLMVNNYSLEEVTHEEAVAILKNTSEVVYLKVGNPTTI

Assay [10] deals with T10, GST-Shank 1 PDZ domain 1 (Homo sapiens (Human)), Q9UPX8.
T10 chain: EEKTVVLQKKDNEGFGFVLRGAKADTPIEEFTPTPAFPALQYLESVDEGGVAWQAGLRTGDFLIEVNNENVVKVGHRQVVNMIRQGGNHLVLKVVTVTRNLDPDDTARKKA

Assay [11] has as its target T11, GST-EZRIN Binding Protein 50 PDZ domain 1 (Homo sapiens (Human)), O14745.
T11 chain: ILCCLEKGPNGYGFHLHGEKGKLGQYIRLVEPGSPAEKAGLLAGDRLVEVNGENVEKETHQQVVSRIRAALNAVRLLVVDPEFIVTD

Assay [12] concerns the target T12, GST-MUPP1 PDZ domain 10 (Homo sapiens (Human)), O75970.
T12 chain: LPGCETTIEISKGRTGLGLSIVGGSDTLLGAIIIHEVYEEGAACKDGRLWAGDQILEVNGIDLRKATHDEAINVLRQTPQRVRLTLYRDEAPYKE

In assay [13] the target is T13, GST-SYNTENIN PDZ domain 1 (Homo sapiens (Human)), O00560.
T13 chain: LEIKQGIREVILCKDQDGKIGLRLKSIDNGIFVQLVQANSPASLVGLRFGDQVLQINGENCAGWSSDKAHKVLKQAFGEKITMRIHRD

The next assay has as its target T14, GST-ZO-3 PDZ domain 1.
T14 chain: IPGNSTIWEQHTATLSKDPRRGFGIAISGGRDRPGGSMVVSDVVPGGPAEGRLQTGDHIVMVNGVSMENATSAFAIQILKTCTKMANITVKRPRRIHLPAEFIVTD

The target of assay [14] is GST-BAI-1 Associated Protein PDZ domain 6 (Homo sapiens (Human)), Q96QZ7.
Chain of GST-BAI-1 Associated Protein PDZ domain 6 (Homo sapiens (Human)), Q96QZ7 (Q96QZ7 1143-1233): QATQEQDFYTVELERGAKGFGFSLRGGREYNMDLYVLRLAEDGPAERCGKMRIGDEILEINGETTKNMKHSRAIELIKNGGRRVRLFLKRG
The target in assay [15] is GST-KIAA1634 PDZ domain 1 (Homo sapiens (Human)), Q5TCQ9.
Chain of GST-KIAA1634 PDZ domain 1 (Homo sapiens (Human)), Q5TCQ9 (Q5TCQ9 401-502): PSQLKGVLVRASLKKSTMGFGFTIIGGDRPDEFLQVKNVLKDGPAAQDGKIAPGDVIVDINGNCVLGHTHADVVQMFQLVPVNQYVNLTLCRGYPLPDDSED
Assay [16] deals with T15, GST-NeDLG PDZ domain 2 (Rattus norvegicus (Rat)), Q62936.
T15 chain: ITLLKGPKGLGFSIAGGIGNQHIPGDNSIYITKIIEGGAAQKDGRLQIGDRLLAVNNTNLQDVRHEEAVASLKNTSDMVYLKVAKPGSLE

Assay [17] addresses GST-BAI-1 Associated Protein PDZ domain 5 (Homo sapiens (Human)), Q96QZ7.
Assay [18] addresses GST-TAX IP2 PDZ domain 1 [GST: P08515].
Assay [19] deals with T16, GST-KIAA0973 PDZ domain 1 (Homo sapiens (Human)), Q9Y2H9.
T16 chain: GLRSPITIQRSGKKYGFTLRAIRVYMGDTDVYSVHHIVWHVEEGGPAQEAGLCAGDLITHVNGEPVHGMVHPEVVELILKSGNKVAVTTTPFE

Assay [20] addresses GST-BAI-1 Associated Protein PDZ domain 4 (Homo sapiens (Human)), Q96QZ7.
Note: key of the grades not given here.

Chain of GST-TAX IP2 PDZ domain 1 [GST: P08515] (P08515 whole entry, the tested form may be a part): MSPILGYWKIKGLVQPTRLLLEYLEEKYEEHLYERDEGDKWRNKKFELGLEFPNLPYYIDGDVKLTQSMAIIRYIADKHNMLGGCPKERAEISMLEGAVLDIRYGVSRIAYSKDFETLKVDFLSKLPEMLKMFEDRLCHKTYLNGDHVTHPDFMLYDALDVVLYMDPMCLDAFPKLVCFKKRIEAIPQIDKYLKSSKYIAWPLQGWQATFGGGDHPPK
Chain of GST-BAI-1 Associated Protein PDZ domain 4 (Homo sapiens (Human)), Q96QZ7 (Q96QZ7 other isoform, or with tags, fused parts or gaps): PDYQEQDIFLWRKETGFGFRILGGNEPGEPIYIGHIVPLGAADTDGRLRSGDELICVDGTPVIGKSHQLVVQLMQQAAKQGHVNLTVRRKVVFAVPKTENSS
Chain of GST-BAI-1 Associated Protein PDZ domain 5 (Homo sapiens (Human)), Q96QZ7 (Q96QZ7 988-1099): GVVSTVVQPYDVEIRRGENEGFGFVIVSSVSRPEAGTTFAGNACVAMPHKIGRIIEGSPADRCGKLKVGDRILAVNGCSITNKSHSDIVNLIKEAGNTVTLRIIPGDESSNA

For the molecule PYSELNYETSHYPASPDSWV (modifications not checked) [catenin - delta 2], the Classification was determined as 3 A450 class in assay [1]; 2 A450 class in assay [2]; 3 A450 class in assay [3]; 1 A450 class in assay [4]; 2 A450 class in assay [5]; 3 A450 class in assay [6]. Moreover, the Classification was 4 A450 class in [7], 5 A450 class in [8] and 1 A450 class in [9].

Regarding AWDDSARAAGGQGLHVTAL (modifications not checked) [LPAP], the Classification in assay [1] came out at 5 A450 class; in [10], 3 A450 class; in [11], 5 A450 class; in [8] it was 1 A450 class.

Consider KTMPAAMYRLLTAQEQPVYI (modifications not checked) [MINT-1], for which the Classification in assay [12] worked out at 1 A450 class; in [2] it was 1 A450 class; in assay [13], 3 A450 class; in the assay with GST-ZO-3 PDZ domain 1, 2 A450 class; in [6], 1 A450 class; in assay [8] it was 5 A450 class.

Regarding TQGFPGPATWRRISSLESEV (modifications not checked) [NMDA Glutamate Receptor 2C (cysteine-free)], the Classification in assay [1] was found to be 5 A450 class; in [12], 1 A450 class; in assay [14], 2 A450 class; in [2], 1 A450 class; in [3], 1 A450 class; in assay [15], 5 A450 class. The Classification stood at 5 A450 class in assay [16]; 5 A450 class in assay [5]; 4 A450 class in assay [17]; 4 A450 class in assay [7]; 4 A450 class in assay [18]; 1 A450 class in assay [8]. The Classification in assay [19] stood at 1 A450 class; in [20] it was 3 A450 class; in assay [9], 5 A450 class.

Consider ILNSIQVMRAQMNQIQSVEV (modifications not checked) [ephrin B2], for which the Classification was determined as 2 A450 class in assay [1]; 2 A450 class in assay [14]; 1 A450 class in assay [11]; 1 A450 class in [13]; 2 A450 class in assay [4]; 1 A450 class with GST-ZO-3 PDZ domain 1. Moreover, the Classification was found to be 2 A450 class in assay [16], 1 A450 class in [6], 2 A450 class in assay [8] and 2 A450 class in assay [19].

For the molecule QISPGGLEPPSEKHFRETEV (modifications not checked) [TAX], the Classification in assay [1] turned out to be 5 A450 class; in assay [14], 1 A450 class; in [3], 5 A450 class; in [15] it was 5 A450 class; in assay [4] it was 1 A450 class; in [16], 5 A450 class. Besides, the Classification in [5] is 5 A450 class; in [17], 5 A450 class; in [7], 5 A450 class; in [18], 2 A450 class; in assay [20], 2 A450 class; in [9] it was 5 A450 class.

As to VGTLLLERVIFPSVKIATLV (modifications not checked) [AdenoE4 typ9], the Classification is 1 A450 class in assay [12]; 1 A450 class in [14]; 2 A450 class in assay [2]; 5 A450 class in [15]; 5 A450 class in assay [16]; 5 A450 class in assay [5]. In addition, the Classification in assay [8] came to 2 A450 class; in [20], 5 A450 class; in [9], 5 A450 class.

For the molecule ELLQFCRTPNPALKNGQYWV (modifications not checked) [CSPG4 (chondroitin sulfae proteoglycan 4, melanoma-associated)], the Classification in [1] came out at 1 A450 class; in [12], 4 A450 class; in [14], 4 A450 class; in assay [2], 3 A450 class; in [13], 2 A450 class; in [15] it was 5 A450 class. Moreover, the Classification in the assay with GST-ZO-3 PDZ domain 1 is 2 A450 class; in assay [6], 5 A450 class; in assay [7], 3 A450 class; in [8] it was 5 A450 class.

HDFRRAFKKILARGDRKRIV (modifications not checked) [alpha-2A Adrenergic receptor] registered a Classification in assay [14] of 3 A450 class.

Turning to PIPAGGCTFSGIFPTLTSPL (modifications not checked) [KIA 1481], the Classification is 2 A450 class in assay [1]; 5 A450 class in assay [10]; 2 A450 class in [14]; 2 A450 class in [11]; 2 A450 class in [15]; 3 A450 class in assay [17]. Besides, the Classification in assay [8] was 3 A450 class; in assay [19] it was 2 A450 class; in assay [20], 1 A450 class.

Take VPGALDYAAFSSALYGESDL (modifications not checked) [a-actinin 2]: the Classification in assay [1] is 5 A450 class; in [10] it was 1 A450 class; in assay [14] it was 5 A450 class; in assay [5], 1 A450 class; in assay [7], 1 A450 class; in [18], 5 A450 class. In addition, the Classification in assay [8] was 1 A450 class; in [19], 2 A450 class.
